Measured values: PMC9482650, “Quantitative fragmentomics allow affinity mapping of interactomes” (Nature Communications, 2022)

How the values were obtained:
Assay in all cases: holdup assay
Set-up in all cases: key: below the threshold = too weak to quantify, mostly under pKd 3.1 to 4
[1] = molecular target: CARD14, Q9BXL6
[2] = molecular target: CNKSR3, Q6P9H4
[3] = molecular target: DLG5_2, Q8TDM6
[4] = molecular target: T1, DVL1, O14640
T1 sequence (O14640 246-333, limits assumed, looked up): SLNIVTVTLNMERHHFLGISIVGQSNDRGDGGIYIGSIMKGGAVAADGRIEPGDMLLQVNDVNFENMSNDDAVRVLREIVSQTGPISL

[5] = molecular target: Inadl_7, Q8NI35
[6] = molecular target: MAGI1_3, Q96QZ7
[7] = molecular target: MAGI1_4, Q96QZ7
[8] = molecular target: MAGI1_5, Q96QZ7
[9] = molecular target: MAGI3_4, Q5TCQ9
[10] = molecular target: MAST3, O60307
[11] = molecular target: T2, MPDZ_7, O75970
T2 sequence (O75970 1146-1253, limits assumed, looked up): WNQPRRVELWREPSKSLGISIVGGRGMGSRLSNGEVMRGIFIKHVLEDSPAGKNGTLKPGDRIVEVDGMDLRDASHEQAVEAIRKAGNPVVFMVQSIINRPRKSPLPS

[12] = molecular target: T3, MPP5, Q8N3R9
T3 sequence (Q8N3R9 251-346, limits assumed, looked up): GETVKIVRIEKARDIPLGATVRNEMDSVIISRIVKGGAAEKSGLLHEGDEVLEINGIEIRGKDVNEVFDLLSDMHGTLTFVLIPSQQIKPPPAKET

[13] = molecular target: NHERF4_3, Q86UT5
[14] = molecular target: PARD3B_2, Q8TEW8
[15] = molecular target: PARD3_1, Q8TEW0
[16] = molecular target: T4, PARD6B, Q9BYG5
T4 sequence (Q9BYG5 152-260, limits assumed, looked up): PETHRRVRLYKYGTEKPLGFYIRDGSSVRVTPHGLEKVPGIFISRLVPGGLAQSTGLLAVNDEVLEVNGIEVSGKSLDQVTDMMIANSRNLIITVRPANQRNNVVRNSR

[17] = molecular target: PDLIM4, P50479
[18] = molecular target: T5, PDZD11, Q5EBL8
T5 sequence (Q5EBL8 42-139, limits assumed, looked up): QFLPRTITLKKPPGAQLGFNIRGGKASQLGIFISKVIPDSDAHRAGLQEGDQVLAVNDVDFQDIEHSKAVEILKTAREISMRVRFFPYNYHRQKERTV

[19] = molecular target: T6, PDZD8, Q8NEN9
T6 sequence (Q8NEN9 361-459, limits assumed, looked up): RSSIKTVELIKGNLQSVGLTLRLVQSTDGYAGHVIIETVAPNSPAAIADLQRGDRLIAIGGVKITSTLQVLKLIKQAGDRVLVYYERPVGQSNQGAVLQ

[20] = molecular target: T7, PTPN13_4, Q12923
T7 sequence (Q12923 1783-1878, limits assumed, looked up): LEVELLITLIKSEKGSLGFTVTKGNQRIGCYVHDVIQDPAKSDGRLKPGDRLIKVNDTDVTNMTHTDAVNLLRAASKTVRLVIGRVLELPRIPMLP

[21] = molecular target: T8, PTPN4, P29074
T8 sequence (P29074 512-599, limits assumed, looked up): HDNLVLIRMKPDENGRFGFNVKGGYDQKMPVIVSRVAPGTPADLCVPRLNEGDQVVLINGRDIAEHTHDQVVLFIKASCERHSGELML

[22] = molecular target: T9, SHROOM2, Q13796
T9 sequence (Q13796 21-118, limits assumed, looked up): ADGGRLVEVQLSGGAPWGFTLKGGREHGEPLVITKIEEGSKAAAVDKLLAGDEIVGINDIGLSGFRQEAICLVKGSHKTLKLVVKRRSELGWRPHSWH

[23] = molecular target: T10, SHROOM4, Q9ULL8
T10 sequence (Q9ULL8 5-102, limits assumed, looked up): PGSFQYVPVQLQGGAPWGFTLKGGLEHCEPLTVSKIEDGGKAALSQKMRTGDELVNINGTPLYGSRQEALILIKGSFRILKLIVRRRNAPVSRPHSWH

[24] = molecular target: T11, SIPA1L3, O60292
T11 sequence (O60292 961-1052, limits assumed, looked up): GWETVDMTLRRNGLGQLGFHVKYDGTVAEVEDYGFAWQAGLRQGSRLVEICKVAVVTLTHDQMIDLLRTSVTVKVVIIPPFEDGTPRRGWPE

[25] = molecular target: T12, USH1C_3, Q9Y6N9
T12 sequence (Q9Y6N9 447-547, limits assumed, looked up): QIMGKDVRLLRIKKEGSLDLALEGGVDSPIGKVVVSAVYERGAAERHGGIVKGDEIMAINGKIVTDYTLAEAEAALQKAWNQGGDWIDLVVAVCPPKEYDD

[26] = plain residues with an end cap or a label only (N-terminal biotin on a linker: none)
[27] = plain residues with an end cap or a label only (N-terminal biotin on a linker: ttds)

Chain of CNKSR3, Q6P9H4 (Q6P9H4 203-303): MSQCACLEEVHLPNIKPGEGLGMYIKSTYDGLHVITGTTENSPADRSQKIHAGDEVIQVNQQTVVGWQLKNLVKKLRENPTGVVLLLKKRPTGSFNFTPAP
Chain of DLG5_2, Q8TDM6 (Q8TDM6 714-800): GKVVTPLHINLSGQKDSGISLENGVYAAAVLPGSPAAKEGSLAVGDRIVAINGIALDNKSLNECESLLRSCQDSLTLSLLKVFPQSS
Chain of MAGI1_4, Q96QZ7 (Q96QZ7 other isoform, or with tags, fused parts or gaps): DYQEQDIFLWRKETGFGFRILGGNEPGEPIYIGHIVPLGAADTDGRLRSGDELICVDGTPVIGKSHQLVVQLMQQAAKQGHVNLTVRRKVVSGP
Chain of CARD14, Q9BXL6 (Q9BXL6 558-663): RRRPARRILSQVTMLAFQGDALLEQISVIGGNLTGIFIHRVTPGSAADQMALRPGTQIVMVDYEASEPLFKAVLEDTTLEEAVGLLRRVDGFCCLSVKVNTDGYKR
Chain of MAGI1_5, Q96QZ7 (Q96QZ7 986-1098): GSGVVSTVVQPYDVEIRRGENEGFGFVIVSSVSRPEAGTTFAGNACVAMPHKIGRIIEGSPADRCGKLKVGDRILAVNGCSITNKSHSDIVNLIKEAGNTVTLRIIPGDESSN
Chain of MAGI3_4, Q5TCQ9 (Q5TCQ9 716-815): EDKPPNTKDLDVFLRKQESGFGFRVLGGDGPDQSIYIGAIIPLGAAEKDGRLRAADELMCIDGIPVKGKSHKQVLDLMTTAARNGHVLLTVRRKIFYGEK
Chain of MAGI1_3, Q96QZ7 (Q96QZ7 638-725): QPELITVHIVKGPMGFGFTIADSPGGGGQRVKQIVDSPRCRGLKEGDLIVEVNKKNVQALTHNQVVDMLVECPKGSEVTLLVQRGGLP
Chain of MAST3, O60307 (O60307 945-1048): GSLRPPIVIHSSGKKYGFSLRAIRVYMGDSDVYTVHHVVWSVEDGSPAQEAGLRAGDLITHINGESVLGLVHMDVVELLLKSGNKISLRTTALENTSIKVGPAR
Chain of PARD3B_2, Q8TEW8 (Q8TEW8 376-471): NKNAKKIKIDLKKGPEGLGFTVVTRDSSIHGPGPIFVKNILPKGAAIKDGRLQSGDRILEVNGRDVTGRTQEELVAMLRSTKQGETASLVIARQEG
Chain of Inadl_7, Q8NI35 (Q8NI35 1219-1332): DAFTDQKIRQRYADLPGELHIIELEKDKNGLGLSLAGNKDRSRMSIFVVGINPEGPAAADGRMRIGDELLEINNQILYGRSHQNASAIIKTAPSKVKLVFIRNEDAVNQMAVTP
Chain of PDLIM4, P50479 (P50479 1-83): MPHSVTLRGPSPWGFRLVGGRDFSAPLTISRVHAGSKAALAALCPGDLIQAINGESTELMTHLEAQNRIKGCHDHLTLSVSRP
Chain of NHERF4_3, Q86UT5 (Q86UT5 325-412): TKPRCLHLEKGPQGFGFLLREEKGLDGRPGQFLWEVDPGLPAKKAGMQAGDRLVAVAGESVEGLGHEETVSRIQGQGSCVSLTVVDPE
Chain of PARD3_1, Q8TEW0 (Q8TEW0 264-372): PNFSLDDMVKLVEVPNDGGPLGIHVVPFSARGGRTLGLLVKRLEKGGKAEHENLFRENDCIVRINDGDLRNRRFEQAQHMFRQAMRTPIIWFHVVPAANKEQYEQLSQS

B1: MERS-E, K9N5R3 (peptide)
chain: DSKPPLPPDEWV
For B1, the pKd [1, 26] was “below the threshold”, the pKd [2, 26] was “below the threshold” and the pKd [3, 26] was 4. For the same binder, the pKd [4, 26] was “below the threshold”, the pKd [5, 26] was “below the threshold” and the pKd [6, 26] was “below the threshold”. For the same binder, the pKd [7, 26] was “below the threshold”, the pKd [8, 26] was “below the threshold” and the pKd [9, 26] was “below the threshold”. For the same binder, the pKd [10, 26] was “below the threshold”, the pKd [11, 26] was 3.83 and the pKd [12, 26] was 4.03. The pKd [13, 26] was “below the threshold”, the pKd [14, 26] was “below the threshold” and the pKd [15, 26] was “below the threshold”. The pKd [16, 26] was “below the threshold”, the pKd [17, 26] was 3.83 and the pKd [18, 26] was “below the threshold”. The pKd [19, 26] was “below the threshold”, the pKd [20, 26] was 4.11 and the pKd [21, 26] was “below the threshold”. The pKd [22, 26] was “below the threshold”, the pKd [23, 26] was “below the threshold” and the pKd [24, 26] was 3.73. For the same binder, the pKd [25, 26] was “below the threshold”.

B2: ASIC3, Q9UHC3 (peptide)
chain: HRTCYLVTQL
B2 was tested, and the pKd [1, 27] was “below the threshold”, the pKd [2, 27] was “below the threshold” and the pKd [3, 27] was “below the threshold”. The pKd [4, 27] was “below the threshold”, the pKd [5, 27] was 4.05 and the pKd [6, 27] was “below the threshold”. The pKd [7, 27] was “below the threshold”, the pKd [8, 27] was 5.13 and the pKd [9, 27] was “below the threshold”. The pKd [10, 27] was 4.04, the pKd [11, 27] was 4.73 and the pKd [12, 27] was “below the threshold”. For the same binder, the pKd [13, 27] was 4.13, the pKd [14, 27] was “below the threshold” and the pKd [15, 27] was “below the threshold”. The pKd [16, 27] was “below the threshold”, the pKd [17, 27] was “below the threshold” and the pKd [18, 27] was “below the threshold”. The pKd [19, 27] was “below the threshold”, the pKd [20, 27] was “below the threshold” and the pKd [21, 27] was “below the threshold”. The pKd [22, 27] was “below the threshold”, the pKd [23, 27] was “below the threshold” and the pKd [24, 27] was “below the threshold”. The pKd [25, 27] was “below the threshold”.

B3: HPV51-E6, P26554 (peptide)
chain: RTRQRNETQV
In the case of B3, the pKd [1, 27] is reported as 4.34, the pKd [2, 27] is reported as “below the threshold” and the pKd [3, 27] is reported as 4.63. For the same binder, the pKd [4, 27] was 4.86, the pKd [5, 27] was “below the threshold” and the pKd [6, 27] was “below the threshold”. The pKd [7, 27] was “below the threshold”, the pKd [8, 27] was “below the threshold” and the pKd [9, 27] was “below the threshold”. For the same binder, the pKd [10, 27] was “below the threshold”, the pKd [11, 27] was “below the threshold” and the pKd [12, 27] was “below the threshold”. The pKd [13, 27] was “below the threshold”, the pKd [14, 27] was 4.39 and the pKd [15, 27] was “below the threshold”. The pKd [16, 27] was “below the threshold”, the pKd [17, 27] was “below the threshold” and the pKd [18, 27] was “below the threshold”. For the same binder, the pKd [19, 27] was “below the threshold”, the pKd [20, 27] was “below the threshold” and the pKd [21, 27] was “below the threshold”. The pKd [22, 27] was “below the threshold”, the pKd [23, 27] was “below the threshold” and the pKd [24, 27] was “below the threshold”. For the same binder, the pKd [25, 27] was 4.16.
